Target: recombinant mouse nidogen-2 (ELISA) (mouse) (UniProt O88322)
Experiment: ELISA

Chain of UniProt O88322 (O88322 31-1403): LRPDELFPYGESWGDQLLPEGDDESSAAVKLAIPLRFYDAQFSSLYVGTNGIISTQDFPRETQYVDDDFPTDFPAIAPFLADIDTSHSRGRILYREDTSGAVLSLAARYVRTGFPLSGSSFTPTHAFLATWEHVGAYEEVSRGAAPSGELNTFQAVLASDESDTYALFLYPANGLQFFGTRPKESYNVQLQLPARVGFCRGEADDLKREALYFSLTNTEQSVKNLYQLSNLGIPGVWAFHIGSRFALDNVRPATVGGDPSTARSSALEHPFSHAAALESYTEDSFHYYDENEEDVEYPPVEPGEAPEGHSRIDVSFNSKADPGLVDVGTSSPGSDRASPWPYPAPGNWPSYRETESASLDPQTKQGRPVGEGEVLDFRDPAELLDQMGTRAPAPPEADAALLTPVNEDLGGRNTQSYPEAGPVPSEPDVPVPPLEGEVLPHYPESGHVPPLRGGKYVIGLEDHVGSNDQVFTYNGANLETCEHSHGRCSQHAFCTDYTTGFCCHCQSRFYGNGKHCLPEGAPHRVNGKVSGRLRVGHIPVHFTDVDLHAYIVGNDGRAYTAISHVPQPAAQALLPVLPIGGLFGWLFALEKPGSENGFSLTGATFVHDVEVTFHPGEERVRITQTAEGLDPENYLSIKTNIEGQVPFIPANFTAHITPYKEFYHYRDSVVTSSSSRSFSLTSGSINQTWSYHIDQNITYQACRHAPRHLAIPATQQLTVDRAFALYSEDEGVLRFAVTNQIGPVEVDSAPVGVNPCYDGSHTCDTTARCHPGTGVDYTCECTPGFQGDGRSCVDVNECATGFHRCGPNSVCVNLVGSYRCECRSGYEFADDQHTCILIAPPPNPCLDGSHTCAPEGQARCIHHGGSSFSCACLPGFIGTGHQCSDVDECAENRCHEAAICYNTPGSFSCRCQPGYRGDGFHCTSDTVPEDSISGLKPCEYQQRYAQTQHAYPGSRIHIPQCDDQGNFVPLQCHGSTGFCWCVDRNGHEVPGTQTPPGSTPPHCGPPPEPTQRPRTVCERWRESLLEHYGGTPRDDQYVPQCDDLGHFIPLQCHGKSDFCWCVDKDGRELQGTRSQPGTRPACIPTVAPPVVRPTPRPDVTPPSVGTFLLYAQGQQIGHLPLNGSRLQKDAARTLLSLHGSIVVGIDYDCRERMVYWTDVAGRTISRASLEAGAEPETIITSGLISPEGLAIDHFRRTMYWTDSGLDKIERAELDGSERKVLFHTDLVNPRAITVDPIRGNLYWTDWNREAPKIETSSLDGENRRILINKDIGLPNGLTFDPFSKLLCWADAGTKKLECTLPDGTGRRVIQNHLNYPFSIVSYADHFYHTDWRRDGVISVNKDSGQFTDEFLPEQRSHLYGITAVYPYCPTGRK

Row | Substance | Kd [nM]
1 | LAR FNIII2-FLAG (purified soluble 2nd FNIII domain of LAR) (domain or fragment) | 2000
2 | LAR FNIII4-FLAG (purified soluble 4th FNIII domain of LAR) (domain or fragment) | 1900
3 | LAR FNIII5-FLAG (purified soluble 5th FNIII domain of LAR) (domain or fragment) | 1400
4 | LAR FNIII7-FLAG (purified soluble 7th FNIII domain of LAR) (domain or fragment) | 2500
